Data as given in publication PMC4370734.
“And” between values parts separate entries of the source, which are not always exact repeats. Equal entries are not always repeated. Values belong to the substance of their own block, whether it stands above or below them.

How the values were obtained:
Experiment in all cases: AUC; sedimentation velocity, 0.3 mg/mL, 20 mM Tris/HCl, 500 mM sodium chloride, 5 mM DTT, 0.4% CHAPS, pH 8.0, 42,000 rpm, 20°C; c(S) analysis with Sedfit; monomer, dimer, trimer and higher species
[1] = test system: P42858
[2] = biological target: human full-length mutant Htt with 128Qs, C-terminally fused with a FLAG-His (FH) affinity tag (human) (UniProt P42858)
[3] = biological target: human full-length normal Htt with 17Qs, C-terminally fused with a FLAG-His affinity tag (human) (UniProt P42858)

Substance: human full-length mutant Htt with 128Qs, C-terminally fused with a FLAG-His (FH) affinity tag
fraction of aggregates [1]: also of aggregates (23.6% versus 9.9%)

fraction of dimer [2]: 20% | fraction of monomer [2]: 35.6% | fraction of trimer [2]: 17.3% | stoichiometry N [2]: 2 and 3
Substance: human full-length mutant Htt with 128Qs, C-terminally fused with a FLAG-His (FH) affinity tag, P42858 1-3142

Substance: human full-length normal Htt with 17Qs, C-terminally fused with a FLAG-His affinity tag
fraction of aggregates [1]: also of aggregates (23.6% versus 9.9%)

fraction of dimer [3]: 20% | fraction of monomer [3]: 52.1% | fraction of trimer [3]: 8.8% | stoichiometry N [3]: 2 and 3
Substance: human full-length normal Htt with 17Qs, C-terminally fused with a FLAG-His affinity tag, P42858 1-3142
